Reference: US20240190962A1

Target: human IL-2 receptor (IL-2Rα, IL-2Rβ, IL-2Rγ) (human) (UniProt P01589)
Test: cell-based or functional assay

Sequence of human IL-2 receptor (IL-2Rα, IL-2Rβ, IL-2Rγ) (human) (P01589 22-272, chain 1 of 3): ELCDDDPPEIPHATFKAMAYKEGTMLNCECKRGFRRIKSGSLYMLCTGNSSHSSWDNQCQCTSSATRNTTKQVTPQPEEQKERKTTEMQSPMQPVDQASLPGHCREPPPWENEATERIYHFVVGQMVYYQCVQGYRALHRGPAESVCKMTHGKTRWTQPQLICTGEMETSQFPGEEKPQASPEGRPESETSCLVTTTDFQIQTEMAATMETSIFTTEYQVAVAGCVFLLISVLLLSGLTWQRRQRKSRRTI
Sequence of human IL-2 receptor (IL-2Rα, IL-2Rβ, IL-2Rγ) (human) (P14784 27-551, chain 2 of 3, further chain): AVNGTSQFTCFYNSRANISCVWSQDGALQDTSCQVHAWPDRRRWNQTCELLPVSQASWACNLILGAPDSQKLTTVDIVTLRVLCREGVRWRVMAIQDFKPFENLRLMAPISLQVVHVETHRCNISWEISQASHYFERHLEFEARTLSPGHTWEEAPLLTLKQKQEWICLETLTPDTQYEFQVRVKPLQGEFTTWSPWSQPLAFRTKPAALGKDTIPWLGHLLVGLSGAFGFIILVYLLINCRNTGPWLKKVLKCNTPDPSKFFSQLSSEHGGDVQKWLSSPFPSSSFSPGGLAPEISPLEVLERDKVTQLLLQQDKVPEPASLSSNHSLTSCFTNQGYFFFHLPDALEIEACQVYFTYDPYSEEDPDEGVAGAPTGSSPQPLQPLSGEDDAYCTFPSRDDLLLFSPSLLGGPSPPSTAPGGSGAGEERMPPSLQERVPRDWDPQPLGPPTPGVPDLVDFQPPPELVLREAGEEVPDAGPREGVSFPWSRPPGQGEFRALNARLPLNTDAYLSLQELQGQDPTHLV
Sequence of human IL-2 receptor (IL-2Rα, IL-2Rβ, IL-2Rγ) (human) (P31785 23-369, chain 3 of 3, further chain): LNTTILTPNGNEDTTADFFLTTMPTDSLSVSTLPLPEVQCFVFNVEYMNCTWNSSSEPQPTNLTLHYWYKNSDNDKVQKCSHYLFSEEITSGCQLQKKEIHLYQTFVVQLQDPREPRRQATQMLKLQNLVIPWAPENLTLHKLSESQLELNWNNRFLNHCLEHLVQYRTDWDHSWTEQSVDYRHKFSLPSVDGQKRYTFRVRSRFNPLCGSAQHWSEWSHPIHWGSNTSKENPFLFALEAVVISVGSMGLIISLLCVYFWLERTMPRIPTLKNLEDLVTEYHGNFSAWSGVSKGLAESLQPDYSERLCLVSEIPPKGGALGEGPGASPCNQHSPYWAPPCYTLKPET

Percent T-cell proliferation (PBMC proliferation assay): 52%
B1: Fab-Fc-IL-2 mutant-CD3 Ab (protein, part only; not given: constant regions and IL-2 junction, not shown: a dimerising Fc or GST)
light: EIVMTQSPGTLSLSPGESATLSCSASLSVSFMHWFQQKPGHAPRLLIYRTSNLASGVPDRFSGSGSGTDFTLTISRLEPEDFAVYYCQQRSSDPPTFGQGTRLEIKRTVAAPSVFIFPPSDEQLKSGTASVVCLLNNFYPREAKVQWKVDNALQSGNSQESVTEQDSKDSTYSLSSTLTLSKADYEKHKVYACEVTHQGLSSPVTKSFNRGEC
heavy, part 1: EVQLVESGGGLVQPGRSLRLSCTASGFTFSYFWMNWVRQAPGKGLEWVGEIRLRSDNYATHYAESVKGRFTISRDDSKSIAYLQMNSLKTEDTALYYCTRDWEFTYWGQGTTVTVSSAS
heavy, part 2: EVQLVESGGGLVQPGRSLRLSCTASGFTFSYFWMNWVRQAPGKGLEWVGEIRLRSDNYATHYAESVKGRFTISRDDSKSIAYLQMNSLKTEDTALYYCTRDWEFTYWGQGTTVTVSSASAPTSSSTKKTQLQLEHLLLDLQMILNGINNYKNPKLTDMLTFEFYMPKKATELKHLQCLERELKPLEEVLNLAQSKNFHLRPRDLISNINVIVLELKGSETTFMCEYADETATIVEFLNRWITFCQSIISTLT
